Assays:
[1] = biological target: T1, human CD123-Fc (human, UniProt P26951 19-305, limits assumed); experiment: flow cytometry of transduced T cells (day 10) stained with human CD123-Fc, then anti-human Fc PE; unit not given
T1 construct: Staining reagent; not shown: Fc part
T1 sequence (looked up): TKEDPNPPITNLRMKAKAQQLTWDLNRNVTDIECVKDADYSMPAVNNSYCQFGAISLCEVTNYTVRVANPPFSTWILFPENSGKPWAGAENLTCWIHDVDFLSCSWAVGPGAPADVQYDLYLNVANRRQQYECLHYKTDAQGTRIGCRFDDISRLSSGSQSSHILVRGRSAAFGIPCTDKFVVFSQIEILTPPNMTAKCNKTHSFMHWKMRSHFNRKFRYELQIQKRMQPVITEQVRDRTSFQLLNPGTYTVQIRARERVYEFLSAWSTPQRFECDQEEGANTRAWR
Text: To detect the transduction efficiency and level of expression of each construct, transduced T cells on day 10 of expansion were stained with (i) Alexa fluor 647 goat anti-mouse F(ab) reagent, (ii) FITC goat anti-human F(ab), or (iii) human CD123-Fc primary followed by anti-human Fc PE.

[2] = biological target: T2, immobilized CD123 (UniProt P26951 19-305, limits assumed); experiment: ELISA, soluble scFv on immobilized CD123
T2 construct: also called IL-3Rα; IL3Rα
T2 sequence (looked up): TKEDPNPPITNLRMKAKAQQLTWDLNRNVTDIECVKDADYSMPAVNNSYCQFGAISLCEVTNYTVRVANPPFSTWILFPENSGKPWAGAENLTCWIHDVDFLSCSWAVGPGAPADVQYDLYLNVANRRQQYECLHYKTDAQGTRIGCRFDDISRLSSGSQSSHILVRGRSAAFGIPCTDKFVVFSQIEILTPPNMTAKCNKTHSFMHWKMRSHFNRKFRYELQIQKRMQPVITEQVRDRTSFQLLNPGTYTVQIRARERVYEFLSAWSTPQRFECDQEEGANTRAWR

B1: CAR 7 Full (humanized CD123 CAR) (other)
chain: QIQLVQSGAEVKKPGASVKVSCKASGYIFTNYGMNWVRQAPGQRLEWMGWINTYTGESTYSADFKGRVTITLDTSASTAYMELSSLRSEDTAVYYCARSGGYDPMDYWGQGTTVTVSSGGGGSGGGGSGGGGSGGGGSDIVLTQSPDSLAVSLGERATINCRASESVDNYGNTFMHWYQQKPGQPPKLLIYRASNLESGVPDRFSGSGSRTDFTLTISSLQAEDVAVYYCQQSNEDPPTFGQGTKLEIKTTTPAPRPPTPAPTIASQPLSLRPEACRPAAGGAVHTRGLDFACDIYIWAPLAGTCGVLLLSLVITLYCKRGRKKLLYIFKQPFMRPVQTTQEEDGCSCRFPEEEEGGCELRVKFSRSADAPAYKQGQNQLYNELNLGRREEYDVLDKRRGRDPEMGGKPRRKNPQEGLYNELQKDKMAEAYSEIGMKGERRRGKGHDGLYQGLSTATKDTYDALHMQALPPR
notes: Chimeric antigen receptor on transduced human T cells; also called WW88-24LB
Question: Which “Expression by CD123-Fc” value [1] does the source give for B1 here?
Answer: 51

B2: CAR 8 - Full (humanized CD123 CAR) (other)
chain: QIQLVQSGAEVKKPGASVKVSCKASGYIFTNYGMNWVRQAPGQRLEWMGWINTYTGESTYSADFKGRVTITLDTSASTAYMELSSLRSEDTAVYYCARSGGYDPMDYWGQGTTVTVSSGGGGSGGGGSGGGGSGGGGSEIVLTQSPATLSLSPGERATLSCRASESVDNYGNTFMHWYQQKPGQAPRLLIYRASNLESGIPARFSGSGSRTDFTLTISSLEPEDVAVYYCQQSNEDPPTFGQGTKLEIKTTTPAPRPPTPAPTIASQPLSLRPEACRPAAGGAVHTRGLDFACDIYIWAPLAGTCGVLLLSLVITLYCKRGRKKLLYIFKQPFMRPVQTTQEEDGCSCRFPEEEEGGCELRVKFSRSADAPAYKQGQNQLYNELNLGRREEYDVLDKRRGRDPEMGGKPRRKNPQEGLYNELQKDKMAEAYSEIGMKGERRRGKGHDGLYQGLSTATKDTYDALHMQALPPR
notes: Chimeric antigen receptor on transduced human T cells; also called UL69-05CC
Question: Which “Expression by CD123-Fc” value [1] does the source give for B2 here?
Answer: 73.2

B3: 109375 CAR6 - Full (humanized CD123 CAR) (other)
chain: QIQLVQSGSELKKPGASVKVSCKASGYIFTNYGMNWVRQAPGQGLEWMGWINTYTGESTYSADFKGRFVFSLDTSVSTAYLQINALKAEDTAVYYCARSGGYDPMDYWGQGTTVTVSSGGGGSGGGGSGGGGSGGGGSEIVLTQSPATLSLSPGERATLSCRASESVDNYGNTFMHWYQQKPGQAPRLLIYRASNLESGIPARFSGSGSRTDFTLTISSLEPEDVAVYYCQQSNEDPPTFGQGTKLEIKTTTPAPRPPTPAPTIASQPLSLRPEACRPAAGGAVHTRGLDFACDIYIWAPLAGTCGVLLLSLVITLYCKRGRKKLLYIFKQPFMRPVQTTQEEDGCSCRFPEEEEGGCELRVKFSRSADAPAYKQGQNQLYNELNLGRREEYDVLDKRRGRDPEMGGKPRRKNPQEGLYNELQKDKMAEAYSEIGMKGERRRGKGHDGLYQGLSTATKDTYDALHMQALPPR
notes: Chimeric antigen receptor; also called MW89-29GB
Question: B3 was tested. Which “Expression by CD123-Fc” value [1] did it give?
Answer: 0.64

B4: CD123 CAR 1172 (mouse anti-human CD123 CAR, scFv 32716 light-to-heavy, CD8 hinge, 4-1BB, CD3zeta) (other)
chain: GSDIVLTQSPASLAVSLGQRATISCRASESVDNYGNTFMHWYQQKPGQPPKLLIYRASNLESGIPARFSGSGSRTDFTLTINPVEADDVATYYCQQSNEDPPTFGAGTKLELKGGGGSGGGGSSGGGSQIQLVQSGPELKKPGETVKISCKASGYIFTNYGMNWVKQAPGKSFKWMGWINTYTGESTYSADFKGRFAFSLETSASTAYLHINDLKNEDTATYFCARSGGYDPMDYWGQGTSVTVSSASSGTTTPAPRPPTPAPTIASQPLSLRPEACRPAAGGAVHTRGLDFACDIYIWAPLAGTCGVLLLSLVITLYCKRGRKKLLYIFKQPFMRPVQTTQEEDGCSCRFPEEEEGGCELRVKFSRSADAPAYKQGQNQLYNELNLGRREEYDVLDKRRGRDPEMGGKPRRKNPQEGLYNELQKDKMAEAYSEIGMKGERRRGKGHDGLYQGLSTATKDTYDALHMQALPPR
notes: Chimeric antigen receptor expressed on human T cells; also called C1172; clone 72
Question: With B4 as the binder, how does the “Expression by CD123-Fc” value [1] read?
Answer: 32.3

B5: CAR 5 - Full (humanized CD123 CAR) (other)
chain: QIQLVQSGSELKKPGASVKVSCKASGYIFTNYGMNWVRQAPGQGLEWMGWINTYTGESTYSADFKGRFVFSLDTSVSTAYLQINALKAEDTAVYYCARSGGYDPMDYWGQGTTVTVSSGGGGSGGGGSGGGGSGGGGSDIVLTQSPDSLAVSLGERATINCRASESVDNYGNTFMHWYQQKPGQPPKLLIYRASNLESGVPDRFSGSGSRTDFTLTISSLQAEDVAVYYCQQSNEDPPTFGQGTKLEIKTTTPAPRPPTPAPTIASQPLSLRPEACRPAAGGAVHTRGLDFACDIYIWAPLAGTCGVLLLSLVITLYCKRGRKKLLYIFKQPFMRPVQTTQEEDGCSCRFPEEEEGGCELRVKFSRSADAPAYKQGQNQLYNELNLGRREEYDVLDKRRGRDPEMGGKPRRKNPQEGLYNELQKDKMAEAYSEIGMKGERRRGKGHDGLYQGLSTATKDTYDALHMQALPPR
notes: Chimeric antigen receptor on transduced human T cells; also called GW86-29RB
Question: B5 was tested. Which “Expression by CD123-Fc” value [1] did it give?
Answer: 46.1

B6: parent mouse scFv (anti-CD123, clone 32716) (scFv)
scFv: DIVLTQSPASLAVSLGQRATISCRASESVDNYGNTFMHWYQQKPGQPPKLLIYRASNLESGIPARFSGSGSRTDFTLTINPVEADDVATYYCQQSNEDPPTFGAGTKLELKGGGGSGGGGSSGGGSQIQLVQSGPELKKPGETVKISCKASGYIFTNYGMNWVKQAPGKSFKWMGWINTYTGESTYSADFKGRFAFSLETSASTAYLHINDLKNEDTATYFCARSGGYDPMDYWGQGTSVTVSS
notes: also called mouse Ctrl scFv
Question: B6 was tested. Which EC50 [2] did it give?
Answer: 1.1 to 2.6 nM

From patent US20170183415A1 (Novartis, published 2017)
